Experimental data reported in IntAct's records for PubMed 21311754.

Key:
apc_human APC [1] = target: apc_human APC (UniProt P25054)
apc_human APC [2] = target: apc_human APC (UniProt P25054); remark: listed apart in the source

Cell division control protein 42 homolog (Homo sapiens), P60953 T17N, sequence (P60953 whole entry T17N): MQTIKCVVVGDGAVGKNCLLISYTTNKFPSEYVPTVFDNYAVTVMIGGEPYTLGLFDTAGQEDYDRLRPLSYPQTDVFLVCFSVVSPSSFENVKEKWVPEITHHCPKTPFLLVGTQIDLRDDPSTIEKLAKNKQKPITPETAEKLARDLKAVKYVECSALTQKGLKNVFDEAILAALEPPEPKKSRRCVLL
apc_human APC, sequence (P25054 whole entry): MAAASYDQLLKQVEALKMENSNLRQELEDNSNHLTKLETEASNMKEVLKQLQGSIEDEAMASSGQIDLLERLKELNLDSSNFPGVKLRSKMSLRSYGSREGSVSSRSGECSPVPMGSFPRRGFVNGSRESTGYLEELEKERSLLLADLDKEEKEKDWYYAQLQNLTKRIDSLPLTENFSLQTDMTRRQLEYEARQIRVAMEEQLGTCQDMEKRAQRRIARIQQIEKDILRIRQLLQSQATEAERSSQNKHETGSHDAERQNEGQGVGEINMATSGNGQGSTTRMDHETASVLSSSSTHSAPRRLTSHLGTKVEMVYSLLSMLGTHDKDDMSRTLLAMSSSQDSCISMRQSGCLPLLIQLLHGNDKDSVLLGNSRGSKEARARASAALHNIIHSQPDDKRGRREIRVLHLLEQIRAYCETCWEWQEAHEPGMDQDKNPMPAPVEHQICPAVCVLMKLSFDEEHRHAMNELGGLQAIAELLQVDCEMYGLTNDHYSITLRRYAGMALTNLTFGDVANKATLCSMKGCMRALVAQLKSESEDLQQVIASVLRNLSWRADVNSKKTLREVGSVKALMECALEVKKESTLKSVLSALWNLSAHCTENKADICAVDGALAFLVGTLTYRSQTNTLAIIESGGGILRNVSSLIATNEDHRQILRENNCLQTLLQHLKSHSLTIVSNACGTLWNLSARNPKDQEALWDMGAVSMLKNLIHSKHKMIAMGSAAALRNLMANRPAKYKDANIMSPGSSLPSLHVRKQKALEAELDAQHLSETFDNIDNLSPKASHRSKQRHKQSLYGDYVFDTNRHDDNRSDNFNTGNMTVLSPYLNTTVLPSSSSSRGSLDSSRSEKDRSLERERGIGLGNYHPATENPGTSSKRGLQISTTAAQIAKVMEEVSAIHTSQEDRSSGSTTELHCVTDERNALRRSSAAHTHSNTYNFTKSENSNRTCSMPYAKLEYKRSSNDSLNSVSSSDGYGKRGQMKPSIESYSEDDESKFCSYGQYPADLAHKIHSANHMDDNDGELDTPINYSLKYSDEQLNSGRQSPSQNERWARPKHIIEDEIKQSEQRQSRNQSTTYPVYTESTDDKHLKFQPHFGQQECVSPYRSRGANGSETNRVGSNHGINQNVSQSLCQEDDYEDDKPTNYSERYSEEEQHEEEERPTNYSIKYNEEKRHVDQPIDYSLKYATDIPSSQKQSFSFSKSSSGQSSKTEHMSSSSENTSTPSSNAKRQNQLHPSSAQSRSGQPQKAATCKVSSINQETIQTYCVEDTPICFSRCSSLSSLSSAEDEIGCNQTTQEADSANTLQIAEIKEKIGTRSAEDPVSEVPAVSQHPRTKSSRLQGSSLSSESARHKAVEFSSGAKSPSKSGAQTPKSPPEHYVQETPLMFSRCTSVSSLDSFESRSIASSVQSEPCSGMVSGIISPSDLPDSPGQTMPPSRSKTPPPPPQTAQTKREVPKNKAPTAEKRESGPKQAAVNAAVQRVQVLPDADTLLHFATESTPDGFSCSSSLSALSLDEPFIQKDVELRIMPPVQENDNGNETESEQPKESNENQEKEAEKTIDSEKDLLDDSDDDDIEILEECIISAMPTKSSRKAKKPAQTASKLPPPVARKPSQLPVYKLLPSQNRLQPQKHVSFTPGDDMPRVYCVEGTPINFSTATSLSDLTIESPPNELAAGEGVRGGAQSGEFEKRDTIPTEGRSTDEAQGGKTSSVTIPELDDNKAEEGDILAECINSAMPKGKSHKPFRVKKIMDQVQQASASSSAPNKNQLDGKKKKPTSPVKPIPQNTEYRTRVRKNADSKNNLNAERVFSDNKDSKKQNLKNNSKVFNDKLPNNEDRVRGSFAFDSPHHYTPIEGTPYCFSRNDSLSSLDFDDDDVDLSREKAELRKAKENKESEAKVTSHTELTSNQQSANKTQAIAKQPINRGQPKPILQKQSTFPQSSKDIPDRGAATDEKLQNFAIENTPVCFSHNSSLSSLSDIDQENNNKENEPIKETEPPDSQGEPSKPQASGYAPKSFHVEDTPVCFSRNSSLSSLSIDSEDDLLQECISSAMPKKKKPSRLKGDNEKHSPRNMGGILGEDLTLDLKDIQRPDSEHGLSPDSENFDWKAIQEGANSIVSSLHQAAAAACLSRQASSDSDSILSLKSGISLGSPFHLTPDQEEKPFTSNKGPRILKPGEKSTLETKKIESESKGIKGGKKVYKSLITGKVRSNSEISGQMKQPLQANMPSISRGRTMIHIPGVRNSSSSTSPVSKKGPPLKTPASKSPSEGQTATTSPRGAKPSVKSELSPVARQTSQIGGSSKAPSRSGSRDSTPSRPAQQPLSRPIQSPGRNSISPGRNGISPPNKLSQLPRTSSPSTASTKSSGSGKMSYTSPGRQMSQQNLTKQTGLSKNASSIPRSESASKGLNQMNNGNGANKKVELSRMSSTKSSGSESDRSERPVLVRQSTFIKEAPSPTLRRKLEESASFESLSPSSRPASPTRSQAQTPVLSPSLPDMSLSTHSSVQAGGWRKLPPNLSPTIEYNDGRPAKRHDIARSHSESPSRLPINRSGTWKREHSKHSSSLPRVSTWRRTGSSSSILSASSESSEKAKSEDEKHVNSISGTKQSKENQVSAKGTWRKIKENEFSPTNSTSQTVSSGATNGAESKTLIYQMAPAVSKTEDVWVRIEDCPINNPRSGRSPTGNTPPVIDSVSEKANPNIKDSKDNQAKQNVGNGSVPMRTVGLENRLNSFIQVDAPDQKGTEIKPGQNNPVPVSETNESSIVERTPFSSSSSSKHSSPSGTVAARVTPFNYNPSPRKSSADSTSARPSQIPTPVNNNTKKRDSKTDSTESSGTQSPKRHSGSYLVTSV

Substance: Cell division control protein 42 homolog (Homo sapiens), P60953 T17N
- effect of a mutation on the interaction (apc_human APC [1]): decreasing interaction strength
- effect of a mutation on the interaction (apc_human APC [2]): disrupting interaction strength
